Source: patent publication US20110081661A1, “Modified photoproteins with increased affinity for calcium and enhanced bioluminescence and uses thereof” (Millipore Corporation, priority 2009, published 2011)
Residue numbers refer to the chain shown, from its start. In names and notes the source's numbering stands.

T1: GIP Receptor (Homo sapiens, UniProt P48546)
T1 construct: host or cells: HEK293T
T1 sequence (P48546 22-466): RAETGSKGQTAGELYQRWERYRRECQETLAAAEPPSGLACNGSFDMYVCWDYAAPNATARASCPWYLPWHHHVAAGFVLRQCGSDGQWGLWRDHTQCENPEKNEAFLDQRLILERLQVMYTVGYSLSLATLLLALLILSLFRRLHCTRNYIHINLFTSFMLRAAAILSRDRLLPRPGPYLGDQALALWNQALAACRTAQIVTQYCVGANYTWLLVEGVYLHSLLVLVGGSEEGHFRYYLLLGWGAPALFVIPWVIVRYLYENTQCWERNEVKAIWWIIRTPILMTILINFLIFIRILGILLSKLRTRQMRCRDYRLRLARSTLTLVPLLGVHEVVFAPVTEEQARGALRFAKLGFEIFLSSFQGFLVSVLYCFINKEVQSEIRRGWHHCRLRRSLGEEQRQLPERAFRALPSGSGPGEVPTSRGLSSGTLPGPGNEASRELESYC

B1: Mt-obelin: Mitochondrial Wild-type Obelin (mt-Obelin), SEQ ID NO:7 (protein, listed as Obelia longissima)
chain: MSVLTPLLLRGLTGSARRLPVPRAKIHSLPPEGKLMSSKYAVKLKTDFDNPRWIKRHKHMFDFLDINGNGKITLDEIVSKASDDICAKLEATPEQTKRHQVCVEAFFRGCGMEYGKEIAFPQFLDGWKQLATSELKKWARNEPTLIREWGDAVFDIFDKDGSGTITLDEWKAYGKISGISPSQEDCEATFRHCDLDNSGDLDVDEMTRQHLGFWYTLDPEADGLYGNGVP
B2: Cyto-clytin wt: Wild type Clytin (wt-Clytin) amino acid sequence, SEQ ID NO:1; cytosolic (protein, listed as Clytia gregaria)
chain: MADTASKYAVKLRPNFDNPKWVNRHKFMFNFLDINGDGKITLDEIVSKASDDICAKLGATPEQTKRHQDAVEAFFKKIGMDYGKEVEFPAFVDGWKELANYDLKLWSQNKKSLIRDWGEAVFDIFDKDGSGSISLDEWKAYGRISGICSSDEDAEKTFKHCDLDNSGKLDVDEMTRQHLGFWYTLDPNADGLYGNFVP
B3: Mt-clytin K168E: Mitochondrial K168E modified Clytin, SEQ ID NO:12 (protein)
chain: MSVLTPLLLRGLTGSARRLPVPRAKIHSLPPEGKLRPNFDNPKWVNRHKFMFNFLDINGDGKITLDEIVSKASDDICAKLGATPEQTKRHQDAVEAFFKKIGMDYGKEVEFPAFVDGWKELANYDLKLWSQNKKSLIRDWGEAVFDIFDKDGSGSISLDEWKAYGRISGICSSDEDAEKTFKHCDLDNSGELDVDEMTRQHLGFWYTLDPNADGLYGNFVP
B4: Mt-clytin K168H: Mitochondrial K168H modified Clytin, SEQ ID NO:14 (protein)
chain: B3 chain with E191H
B5: Mt-clytin K168V: Mitochondrial K168V modified Clytin, SEQ ID NO:26 (protein)
chain: B3 chain with E191V
B6: Mt-clytin K168R: Mitochondrial K168R modified Clytin, SEQ ID NO:30 (protein)
chain: B3 chain with E191R
B7: Mt-clytin K168Y: Mitochondrial K168Y modified Clytin, SEQ ID NO:28 (protein)
chain: B3 chain with E191Y

Experiments:
[1] = target: GIP (gastric inhibitory polypeptide) receptor (UniProt P48546); experiment: cell-based or functional assay
GIP Receptor = target: T1, GIP Receptor; experiment: GIP receptor-mediated bioluminescence in HEK293T cells with chimeric promiscuous G protein (FIG. 5, Table II); format: cell-based; conditions: for Max signal with GIP (RLU × 10^−5) / EC50: HEK293T cells, GIP Receptor + promiscuous G protein; for EC50: luminescence vs GIP concentration; for % GPCR/total: signal induced by maximal GIP (1 μM) as percentage of signal induced by Triton X-100 with 1 mM Ca^2+; for Signal: background with GIP: signal induced by maximal GIP (1 μM) divided by signal induced by buffer alone
Method: However, coexpression of GIP receptor with a chimeric G protein containing sequences from Gαs and Gαq enable the GIP receptor to stimulate calcium flux.
The results of the dose response curve to varying concentrations of GIP with a subset of the photoproteins are summarized in FIG. 5.
(§1) Signal to background ratio was calculated as the signal induced by maximal GIP (1 μM) divided by the signal induced by buffer alone. The EC50 value for calcium was determined as described above for FIG. 2 for mitochondrially targeted photoproteins transfected into HEK293T cells in the absence of a cotransfected GPCR or G protein. Affinity for calcium was correlated with the properties of the amino acid side chain at residue 168 of Clytin.
The EC50 value for receptor-mediated calcium flux induced by the ligand was determined by plotting luminescence (Y-axis) versus ligand concentration applied to the cells (X-axis), and applying a sigmoidal dose-response curve-fitting algorithm (GraphPad Prism). GPCR-mediated signals of the various modified forms of Clytin having an amino acid substitution at position 168 were also related to the nature of the side chain. In addition, the subcellular location of the photoproteins (cytosolic vs mitochondrial) appeared to have an effect on GPCR-mediated signals. […] All of the other mitochondrially targeted mutants except for Clytin K168R and wild-type Clytin yielded results that were in the range of those observed for wt-Aequorin.

[2] = Calcium EC50 of mitochondrially targeted photoproteins in HEK293T cells without cotransfected GPCR or G protein (Table II); format: cell-based; conditions: no cotransfected GPCR or G protein
Description: (§2) In an exemplary experiment, HEK293T cells (ATCC-CRL-11268) were transiently co-transfected with 2 μgs of each of pcDNA3.1-H1 (containing the cDNA encoding the H1 histamine receptor) and pcDNA3.1 containing the cDNAs encoding wild type mitochondrial Clytin (referred to as mt-Clytin), modified mitochondrial Clytin having a lysine to aspartic acid mutation at position 168 (referred to as mt-Clytin K168D), modified mitochondrial Clytin having a lysine to glutamic acid mutation at position 168 (referred to as mt-Clytin K168E), wild-type mitochondrial Obelin (referred to as mt-Obelin) or wild type mitochondrial Aequorin (referred to as mt-Aequorin) using the Targefect-293 reagent (TARGETING SYSTEMS). 48 hours later, the cells were detached using Accutase (MILLIPORE), centrifuged, and resuspended in […] in FreeStyle293 media (INVITROGEN), for incubation for 3-4 hours at room temperature in the dark. After incubation, the cells were centrifuged and resuspended in HBSS/HEPES buffer without Ca^2+ at a density of 1×10^6 cells/ml. Next, 100 μl/well of cell suspension for each transfection were added by the use of a Victor2 luminometer plate reader (WALLAC, […]), to a 96-well plate containing 50 μL/well Triton X-100 in MOPS/KCl buffer containing 10 mM EGTA and a series of Ca^2+ concentrations, such that free calcium concentrations ranged from 17 nM to 39.6 μM, followed by for measurement of total bioluminescence at 20 seconds.
as §1

H1 histamine receptor = target: T2, H1 histamine receptor (Homo sapiens, UniProt P35367); experiment: GPCR-mediated versus total bioluminescence in U-2OS cells (FIG. 4); format: cell-based; conditions: 10 μM histamine vs Triton X-100 with 1 mM calcium
T2 construct: expressed in transfected cells; host or cells: U-2OS
Method: In another experiment, the ability of the various photoproteins to detect calcium flux in live cells was assessed by adding varying concentrations of histamine to cells in order to activate the H1 histamine receptor followed by measurement of bioluminescence of the various photoproteins. U-2OS cells were transfected with a cDNA encoding H1 histamine receptor along with a cDNA encoding either a wild-type photoprotein or a modified photoprotein according to the invention, as described above in Example 2, except that Lipofectamine-2000 (INVITROGEN) was used as the transfection reagent. On the second day, the cells were trypsinized, counted, and plated in a white tissue-culture treated 96-well plate (COSTAR) at a density of about 50,000 cells/well in growth media consisting of DMEM containing 10% fetal bovine serum, non-essential amino acids, HEPES and penicillin/streptomycin. On the third day, the medium was removed and cells were washed once with 200 μl/well of HBSS/HEPES (containing Ca^2+). Cells were subsequently incubated with 5 μM coelenterazine in HBSS/HEPES (containing Ca^2+) in a volume of 200 μl/well, for 3-4 hours at room temperature in the dark. After incubation, the coelenterazine solution was removed and cells were washed and replaced with HBSS/HEPES buffer containing both Ca^2+ and Mg^2+. 50 μl/well of histamine at varying concentrations in HBSS/HEPES containing both Ca^2+ and Mg^2+ was added to the cells and total bioluminescence was measured at 20 seconds using a Victor2 luminometer.
In an exemplary experiment, U-2OS cells were transfected, plated and loaded with coelenterazine as described in Example 3. Luminescence induced by buffer alone or by 10 μM histamine was measured also as described in Example 3. Additionally, luminescence induced by addition of Triton X-100 in the presence of 1 mM calcium was also determined in order to assess the total amount of active photoprotein detectable using saturating calcium concentrations in cells.

[3] = Calcium affinity of mitochondrial photoproteins, transient co-transfection with H1 histamine receptor in HEK293T cells (FIG. 2); format: cell-based; conditions: HEK293T cells co-transfected with H1 histamine receptor; Triton X-100, free calcium 17 nM to 39.6 μM; total bioluminescence at 20 seconds; read-out: EC50 value (affinity for Ca^2+)
Description: Following the generation of modified forms of Clytin, the various variants were compared with wt-Aequorin for their affinity for intracellular calcium in transient transfection assays using co-transfection with the H1 histamine receptor (Genbank Accession No. NM_000861, obtained by PCR using H1-specific primers from a human brain cDNA library, forward primer 5′-[…] ATTCCTC-3′ (SEQ ID NO:60), reverse primer 5′-[…] AATTCTC-3′ (SEQ ID NO:61).
as §2

T2 sequence (P35367 whole entry): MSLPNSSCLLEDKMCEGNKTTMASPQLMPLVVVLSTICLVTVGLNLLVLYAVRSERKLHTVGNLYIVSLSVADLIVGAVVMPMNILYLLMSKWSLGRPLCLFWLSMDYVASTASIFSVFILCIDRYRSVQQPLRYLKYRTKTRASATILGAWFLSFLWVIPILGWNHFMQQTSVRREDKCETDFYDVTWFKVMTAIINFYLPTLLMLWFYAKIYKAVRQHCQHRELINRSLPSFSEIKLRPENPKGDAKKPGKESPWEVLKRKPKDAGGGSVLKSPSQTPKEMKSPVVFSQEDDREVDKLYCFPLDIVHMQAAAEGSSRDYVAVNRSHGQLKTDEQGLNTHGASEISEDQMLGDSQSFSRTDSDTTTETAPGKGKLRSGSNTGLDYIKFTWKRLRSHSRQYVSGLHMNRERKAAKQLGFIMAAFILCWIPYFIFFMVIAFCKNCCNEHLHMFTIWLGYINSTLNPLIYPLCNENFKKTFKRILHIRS

Row | Molecule | Max signal with GIP (RLU × 10^−5) (GIP Receptor) | EC50 (GIP Receptor) [nM] | % GPCR/total (GIP Receptor) [%] | Signal: background with GIP (GIP Receptor) | EC50 [2] [nM] | other results
1 | GIP (gastric inhibitory polypeptide) ligand (from UniProt P09681 52-93) | – | – | – | – | – | EC50 for GIP (nM); receptor-mediated calcium flux luminescence in HEK293T cells, reporter Cyto-aequorin [1]: 6.67 nM; EC50 for GIP (nM); receptor-mediated calcium flux luminescence in HEK293T cells, reporter Cyto-clytin K168D [1]: 4.01 nM; EC50 for GIP (nM); receptor-mediated calcium flux luminescence in HEK293T cells, reporter Cyto-clytin K168E [1]: 7.9 nM; EC50 for GIP (nM); receptor-mediated calcium flux luminescence in HEK293T cells, reporter Cyto-clytin wt [1]: 9.67 nM; EC50 for GIP (nM); receptor-mediated calcium flux luminescence in HEK293T cells, reporter Cyto-obelin [1]: 9.86 nM; EC50 for GIP (nM); receptor-mediated calcium flux luminescence in HEK293T cells, reporter Mt-aequorin [1]: 11.3 nM; EC50 for GIP (nM); receptor-mediated calcium flux luminescence in HEK293T cells, reporter Mt-clytin K168D [1]: 9.1 nM; EC50 for GIP (nM); receptor-mediated calcium flux luminescence in HEK293T cells, reporter Mt-clytin K168E [1]: 21.6 nM; EC50 for GIP (nM); receptor-mediated calcium flux luminescence in HEK293T cells, reporter Mt-clytin K168G [1]: 15.1 nM; EC50 for GIP (nM); receptor-mediated calcium flux luminescence in HEK293T cells, reporter Mt-clytin K168H [1]: 19.2 nM; EC50 for GIP (nM); receptor-mediated calcium flux luminescence in HEK293T cells, reporter Mt-clytin K168N [1]: 21 nM; EC50 for GIP (nM); receptor-mediated calcium flux luminescence in HEK293T cells, reporter Mt-clytin K168Q [1]: 17.4 nM; EC50 for GIP (nM); receptor-mediated calcium flux luminescence in HEK293T cells, reporter Mt-clytin K168R [1]: 29.1 nM; EC50 for GIP (nM); receptor-mediated calcium flux luminescence in HEK293T cells, reporter Mt-clytin K168S [1]: 15.4 nM; EC50 for GIP (nM); receptor-mediated calcium flux luminescence in HEK293T cells, reporter Mt-clytin K168T [1]: 13.4 nM; EC50 for GIP (nM); receptor-mediated calcium flux luminescence in HEK293T cells, reporter Mt-clytin K168V [1]: 16.8 nM; EC50 for GIP (nM); receptor-mediated calcium flux luminescence in HEK293T cells, reporter Mt-clytin K168Y [1]: 16.4 nM; EC50 for GIP (nM); receptor-mediated calcium flux luminescence in HEK293T cells, reporter Mt-clytin wt [1]: 12.9 nM; EC50 for GIP (nM); receptor-mediated calcium flux luminescence in HEK293T cells, reporter Mt-obelin [1]: 13.7 nM
2 | B1 | 3.66 | 13.7 | 116 | 172.5 | 373 | –
3 | B2 | 0.2 | 9.67 | 0.3 | 7.0 | – | GPCR-mediated signal as % of the total signal (H1 histamine receptor): ~3%
4 | B3 | 6.07 | 21.6 | 19.8 | 120.8 | 176 | EC50 [3]: 173 nM
5 | B4 | 4.98 | 19.2 | 14.9 | 148.3 | 459 | –
6 | B5 | 3.60 | 16.8 | 18.5 | 158.0 | 389 | –
7 | B6 | 1.89 | 29.1 | 3.3 | 86.8 | 581 | –
8 | B7 | 2.89 | 16.4 | 18.5 | 112.8 | 284 | –
